Measurements taken from patent publication US20110104179A1.

Tests used:
Assay in all cases: cell-based or functional assay
[1] = target: Arg- and Lys-specific proteinases of P. gingivalis ATCC 33277 whole cells (DQ BSA assay) (Porphyromonas gingivalis ATCC 33277)
[2] = target: Lys-gingipain (Kgp) of P. gingivalis ATCC 33277 whole cells (Porphyromonas gingivalis ATCC 33277) (UniProt B2RLK2)
[3] = target: Arg-gingipains of P. gingivalis ATCC 33277 whole cells (Porphyromonas gingivalis ATCC 33277)

With “Non-glycosylated κ-casein(106-169) (from UniProt P02668 127-190) (peptide)” the inhibition of proteinase activity against fluorescent BSA (DQ Green BSA), whole ATCC 33277 cells, peptide 500 µM [1] was 60 % inhibition.

αS1-casein(11-23) (peptide) showed a Protease activity (%), Lys assay, ATCC 33277 whole cell, peptide 100 µM [2] of 64%, a Protease activity (%), Lys assay, ATCC 33277 whole cell, peptide 200 µM [2] of 43% and a Protease activity (%), Lys assay, ATCC 33277 whole cell, peptide 300 µM [2] of 34%. For the same substance, the inhibition in the Lys-specific protease assays, whole cells, inhibitor mixture with ZnCl2 [2] was 85 % inhibition, the Activity with ATCC33277, Arg-gingipains, peptide 100 µM alone (no inhibitor 29.23 + 0.06) [3] was 18 and the Protease activity (%), Arg assay, ATCC 33277 whole cell, peptide 100 µM [3] was 62%. The Protease activity (%), Arg assay, ATCC 33277 whole cell, peptide 200 µM [3] was 39%, the Protease activity (%), Arg assay, ATCC 33277 whole cell, peptide 300 µM [3] was 38% and the inhibition of Arg-specific proteolytic activity, whole cells, peptide 100 µM alone [3] was 40 % inhibition. The inhibition of Arg-specific proteolytic activity, whole cells, peptide and ZnCl2 in a 1:4 ratio [3] was 70 % inhibition.

β-casein(193-205) (peptide) gave an inhibition of whole cell Arg-specific proteolytic activity, peptide 200 µM [3] of 15 % inhibition.

For β-casein(193-209) (peptide), the Protease activity (%), Lys assay, ATCC 33277 whole cell, peptide 100 µM [2] was 71%, the Protease activity (%), Lys assay, ATCC 33277 whole cell, peptide 200 µM [2] was 59% and the Protease activity (%), Lys assay, ATCC 33277 whole cell, peptide 300 µM [2] was 49%. The inhibition in the Lys-specific protease assays, whole cells, peptide: ZnCl2 mixture [2] was 90 % inhibition, the Activity with ATCC33277, Arg-gingipains, peptide 100 µM alone (no inhibitor 29.23 + 0.06) [3] was 20 and the Protease activity (%), Arg assay, ATCC 33277 whole cell, peptide 100 µM [3] was 69%. The Protease activity (%), Arg assay, ATCC 33277 whole cell, peptide 200 µM [3] was 50%, the Protease activity (%), Arg assay, ATCC 33277 whole cell, peptide 300 µM [3] was 50% and the inhibition of Arg-specific proteolytic activity, whole cells, peptide 100 µM alone [3] was 30 % inhibition. It also gave an inhibition of Arg-specific proteolytic activity, whole cells, peptide and ZnCl2 in a 1:4 ratio [3] of 70 % inhibition.

With “κ-casein(106-137) (from UniProt P02668 127-158) (peptide)” the inhibition of protease activity in the fluorescence assay (DQ Green BSA), whole ATCC 33277 cells, peptide 500 µM [1] was 37 % inhibition.

Substance “κ-casein(109-137) (peptide; modification not given)” has a Protease activity (%), Arg assay, ATCC 33277 whole cell, peptide 50 µM [3] of 84% and a Protease activity (%), Arg assay, ATCC 33277 whole cell, peptide 100 µM [3] of 36%.

Substance κ-casein(117-123) (peptide) has an Arg-Specific Activity (%), ATCC 33277 whole cells, BApNA, peptide 200 µM [3] of 111%, an Arg-Specific Activity (%), ATCC 33277 whole cells, BApNA, peptide 500 µM [3] of 90% and an Arg-Specific Activity (%), ATCC 33277 whole cells, BApNA, peptide 1000 µM [3] of 92%.

Work on κ-casein(127-137) (peptide) yielded an Arg-Specific Activity (%), ATCC 33277 whole cells, BApNA, peptide 200 µM [3] of 102%, an Arg-Specific Activity (%), ATCC 33277 whole cells, BApNA, peptide 500 µM [3] of 97% and an Arg-Specific Activity (%), ATCC 33277 whole cells, BApNA, peptide 1000 µM [3] of 82%.
